Test results published in US5550213.

Molecular target: Urokinase plasminogen activator (Homo sapiens (Human)) (UniProt P00749)
Experiment: inhibition of UK activity; Ki by non-linear regression (Enzfitter) of free enzyme versus inhibitor concentration

Substance: mutant with arginine at the P1 site of OM3TKY (designed binder)
- Ki: 1790 nM
